From patent publication US20250011410A1 (INVETX, published 2025) come the findings set out here.

B1: felinized clone 101 Fab-SASA (wild-type) (Fab, V domains shown, not shown: small tags and cut ends)
VH: DVQLVESGGDLVKPGGSLRLTCVASGLSLTSSSMSWVRQAPGKGLQWVSTIYSNGGTYYTDSVKGRFTISKDNAENTLYLQMNNLKTEDTATYYCASIYYYDADYLHWYFDFWGQGALVTVSS
VL: EIQMTQSPTSLSASVGDRVTITCRASEGISNNLSWYQQTPGKAPKLLIYATSNLHSGVPSRFSGSGSGTDFTLTISSLQPEDFATYYCQQGYKWPLTFGGGTKLEITR
B2: AHF17605 (Fab, V domains shown, not shown: small tags and cut ends)
VH: B1 VH with S35V, S97Q
VL: B1 VL with S30A, N53I
notes: Fab-SASA, combinatorial library
B3: AHF17609 (Fab, V domains shown, not shown: small tags and cut ends)
VH: B1 VH with S35V, G55R
VL: B1 VL with S30A, N53I
B4: AHF17607 (Fab, V domains shown, not shown: small tags and cut ends)
VH: B1 VH with S35V, G55R, F112E
VL: B1 VL with N53I
B5: AHF17606 (Fab, V domains shown, not shown: small tags and cut ends)
VH: B1 VH with S35V, G55R
VL: B1 VL with S30A
B6: AHF17608 (Fab, V domains shown, not shown: small tags and cut ends)
VH: B1 VH with S35V, G55R
VL: B1 VL with S30A, N53V
B7: AHF17604 (Fab, V domains shown, not shown: small tags and cut ends)
VH: B1 VH with S35V, G55R, S97Q
VL: B1 VL with S30Q, N53I
notes: as for B2
B8: AHF17610 (Fab, V domains shown, not shown: small tags and cut ends)
VH: B1 VH with S35V, G55R
VL: B1 VL with S30A
B9: felinized clone 101 (IgG) (antibody, V domains shown)
VH: B1 VH
VL: EIQMTQSPTSLSASVGDRVTITCRASEGISNNLSWYQQTPGKAPKLLIYATSNLHSGVPSRFSGSGSGTDFTLTISSLQPEDFATYYCQQGYKWPLTFGGGTKLEIT
B10: SC-184_110 (antibody, IgG1a, V domains shown)
VH: B1 VH with S32A, D102E, D104E
VL: B9 VL with N31K, S52D, Y92W
B11: SC-184_76 (antibody, IgG1a, V domains shown)
VH: B1 VH with S32D, I51L, Y52W, D102E
VL: B9 VL with S30A, Y92F
B12: SC-184_102 (antibody, IgG1a, V domains shown)
VH: B1 VH with S32N, Y52W, D102E, D104E
VL: B9 VL with E27K, T51Q
B13: felinized clone 101 (antibody, V domains shown)
VH: B1 VH
VL: B9 VL
B14: SC-184_102-Arg (antibody, V domains shown)
VH: B1 VH with S32N, Y52W, G55R, D102E, D104E
VL: B9 VL with E27K, T51Q
notes: SC-184_102 containing the G55R mutation in VH; feline antibody captured on an anti-feline chip
B15: SC-184_110 (antibody, IgG1a, V domains shown)
VH: B1 VH with S32A, D102E, D104E
VL: B9 VL with N31K, S52D, Y92W
notes: also called SC-110
B16: AHF17602 (antibody, V domains shown)
VH: B1 VH with S35V, G55R
VL: B9 VL with S30A
notes: also called AIF17602
B17: SC-184_102 (antibody, IgG1a, V domains shown)
VH: B1 VH with S32N, Y52W, D102E, D104E
VL: B9 VL with E27K, T51Q
notes: also called SC-102
B18: SC-184_76-Arg (antibody, V domains shown)
VH: B1 VH with S32D, I51L, Y52W, G55R, D102E
VL: B9 VL with S30A, Y92F
notes: SC-184_76 containing the G55R mutation in VH; feline antibody captured on an anti-feline chip
B19: SC-184_76 (antibody, IgG1a, V domains shown)
VH: B1 VH with S32D, I51L, Y52W, D102E
VL: B9 VL with S30A, Y92F
B20: SC-184_110-Arg (antibody, V domains shown)
VH: B1 VH with S32A, G55R, D102E, D104E
VL: B9 VL with N31K, S52D, Y92W
notes: SC-184_110 containing the G55R mutation in VH; feline antibody captured on an anti-feline chip

Positions count from the first letter of the chain named. Names may count otherwise. “And” between values parts separate entries of the source, which are not always exact repeats. Equal entries are not always repeated.

The first assay has as its target T1, canine NGF tagged at the C-terminus with the Flag tag (canine, UniProt A0A8I3PYI3 122-241).
T1 construct: mature; Expressed with baculovirus technology; also called feline NGF (processed form identical)
Nature of the assay: SPR off-rate screen, Fab-SASA on BSA chip.
Target sequence in this assay (A0A8I3PYI3 entry or part of it): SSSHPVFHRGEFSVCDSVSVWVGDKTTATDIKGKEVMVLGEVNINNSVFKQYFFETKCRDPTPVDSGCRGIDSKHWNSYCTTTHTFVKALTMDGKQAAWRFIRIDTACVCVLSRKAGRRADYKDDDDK
The Kd is the concentration at which binding is half-saturated. In general, koff refers to the rate constant with which the complex falls apart. Low values mean slow dissociation, high ones fast dissociation. As usually defined, the kon is the rate constant with which the complex forms. Consider B1, for which the Kd is 2.62 nM and 2.65 nM and 2.69 nM; the “Ratio WT-kd/clone-kd” value is 1; the off-rate constant (koff) was 0.000939 s⁻¹ and 0.000943 s⁻¹ and 0.000947 s⁻¹; the kon was 359000 M⁻¹ s⁻¹ and 355000 M⁻¹ s⁻¹ and 351000 M⁻¹ s⁻¹.

For the next assay, the target named is T1, canine NGF tagged at the C-terminus …. The experiment in a line: SPR off-rate assay, Fab-SASA on BSA chip.
Target sequence in this assay (A0A8I3PYI3 entry or part of it): as above
B1: the Kd was 3.15 nM and 3.78 nM and 3.47 nM; the “Ratio (KD) WT/clones” value worked out at 0; the koff was 0.00179 s⁻¹ and 0.00158 s⁻¹ and 0.00169 s⁻¹; the on-rate (kon) is 569000 M⁻¹ s⁻¹ and 419000 M⁻¹ s⁻¹ and 494000 M⁻¹ s⁻¹.
With B2, the equilibrium dissociation constant (Kd) worked out at 0.82 nM, the “Ratio (KD) WT/clones” value is 4.21, the “Ratio (kd) WT/clones” value amounted to 8.14 and the koff turned out to be 0.000207 s⁻¹. In addition, the on-rate constant (kon) was found to be 253000 M⁻¹ s⁻¹.
The corresponding values for B3 are at most 0.00439 nM, 788, 1680, at most 1e-06 s⁻¹ and 228000 M⁻¹ s⁻¹.
The corresponding values for B4 are at most 0.00442 nM, 781, 1680, at most 1e-06 s⁻¹ and 226000 M⁻¹ s⁻¹.
In the same order, the values of B5 are 0.107 nM, 32.3, 83.8, 2.01e-05 s⁻¹ and 187000 M⁻¹ s⁻¹.
On to B6, for which the dissociation constant (Kd) was at most 0.00439 nM, the “Ratio (KD) WT/clones” value was 788, the “Ratio (kd) WT/clones” value worked out at 1680 and the off-rate constant (koff) is at most 1e-06 s⁻¹. Moreover, the association rate constant (kon) turned out to be 228000 M⁻¹ s⁻¹.
The corresponding values for B7 are 0.321 nM, 10.8, 36.2, 4.66e-05 s⁻¹ and 145000 M⁻¹ s⁻¹.
Consider B8, for which the Kd was at most 0.00549 nM, the “Ratio (KD) WT/clones” value stood at 629, the “Ratio (kd) WT/clones” value came to 1680 and the koff is at most 1e-06 s⁻¹. The molecule further displayed a kon of 182000 M⁻¹ s⁻¹.

A further assay has the same target. The experiment in a line: SPR, IgG amine-coupled to HC30M chip, NGF analyte. (In general: In SPR one partner is held on a chip, and binding of the other changes the refractive index at the surface.)
In turn, B9 had a Kd of 2.1 nM, a koff of 0.00022 s⁻¹ and an on-rate constant (kon) of 110000 M⁻¹ s⁻¹.
The corresponding values for B10 are 0.36 nM, 3.6e-05 s⁻¹ and 160000 M⁻¹ s⁻¹.
The corresponding values for B11 are 0.25 nM, 6.9e-05 s⁻¹ and 270000 M⁻¹ s⁻¹.
Take B12: the kon came out at 210000 M⁻¹ s⁻¹.

The target of a further assay is T2, canine NGF tagged at the C-terminus with the Flag tag (canine, UniProt A0A8I3PYI3 122-241).
T2 construct: mature; 'mature' rests on the words 'processed form'; also called feline NGF (processed form identical)
Nature of the assay: SPR, Biacore T200; antibody captured on anti-feline CM5 chip, NGF as analyte; 1:1 model.
T2 sequence (A0A8I3PYI3 entry or part of it): as above
In turn, B13 had a Kd of 1.75 nM, a koff of 0.00138 s⁻¹ and a kon of 784000 M⁻¹ s⁻¹.
In the same order, the values of B14 are 0.129 nM, 4.43e-05 s⁻¹ and 343000 M⁻¹ s⁻¹.
The corresponding values for B15 are 0.773 nM, 0.00038 s⁻¹ and 492000 M⁻¹ s⁻¹.
In turn, B16 displayed a Kd of 0.161 nM, a koff of 6.32e-05 s⁻¹ and a kon of 394000 M⁻¹ s⁻¹.
In the same order, the values of B17 are 0.42 nM, 0.000198 s⁻¹ and 471000 M⁻¹ s⁻¹.
Take B18: binding was characterised by a dissociation constant (Kd) of 0.154 nM, the koff is 9.01e-05 s⁻¹ and the association rate constant (kon) was 585000 M⁻¹ s⁻¹.
The corresponding values for B19 are 0.472 nM, 0.000396 s⁻¹ and 838000 M⁻¹ s⁻¹.
The corresponding values for B20 are 0.142 nM, 5.48e-05 s⁻¹ and 387000 M⁻¹ s⁻¹.
